Measured values reported in US20240190962A1 (IMMUNOWAKE, published 2024).
Residue numbers refer to the chain shown, from its start. Numbers in names are those of the source. Read-outs that look alike come from different tables or passages of the source.

T1: human IL-2 receptor (IL-2Rα, IL-2Rβ, IL-2Rγ) (human, UniProt P01589 22-272; P14784 27-551; P31785 23-369)
T1 sequence (looked up) 1: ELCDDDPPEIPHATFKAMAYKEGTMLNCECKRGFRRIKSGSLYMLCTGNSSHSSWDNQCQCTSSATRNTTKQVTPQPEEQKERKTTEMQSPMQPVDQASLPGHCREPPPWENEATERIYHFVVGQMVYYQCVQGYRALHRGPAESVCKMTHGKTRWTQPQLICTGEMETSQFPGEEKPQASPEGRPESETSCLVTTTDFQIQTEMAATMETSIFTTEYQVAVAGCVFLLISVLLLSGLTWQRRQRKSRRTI
T1 sequence (looked up) 2: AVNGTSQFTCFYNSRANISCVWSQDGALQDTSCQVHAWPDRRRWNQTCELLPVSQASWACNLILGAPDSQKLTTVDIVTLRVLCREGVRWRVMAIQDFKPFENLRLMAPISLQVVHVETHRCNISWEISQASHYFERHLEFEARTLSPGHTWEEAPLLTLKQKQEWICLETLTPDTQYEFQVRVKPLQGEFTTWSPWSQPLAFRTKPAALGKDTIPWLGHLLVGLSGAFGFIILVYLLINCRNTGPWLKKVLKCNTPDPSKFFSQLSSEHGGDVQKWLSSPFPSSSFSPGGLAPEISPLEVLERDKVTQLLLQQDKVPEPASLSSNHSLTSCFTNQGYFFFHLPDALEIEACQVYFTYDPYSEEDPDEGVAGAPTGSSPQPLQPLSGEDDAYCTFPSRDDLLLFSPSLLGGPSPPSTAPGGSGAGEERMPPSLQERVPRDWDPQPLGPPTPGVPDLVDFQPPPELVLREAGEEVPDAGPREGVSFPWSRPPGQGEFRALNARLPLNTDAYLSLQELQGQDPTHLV
T1 sequence (looked up) 3: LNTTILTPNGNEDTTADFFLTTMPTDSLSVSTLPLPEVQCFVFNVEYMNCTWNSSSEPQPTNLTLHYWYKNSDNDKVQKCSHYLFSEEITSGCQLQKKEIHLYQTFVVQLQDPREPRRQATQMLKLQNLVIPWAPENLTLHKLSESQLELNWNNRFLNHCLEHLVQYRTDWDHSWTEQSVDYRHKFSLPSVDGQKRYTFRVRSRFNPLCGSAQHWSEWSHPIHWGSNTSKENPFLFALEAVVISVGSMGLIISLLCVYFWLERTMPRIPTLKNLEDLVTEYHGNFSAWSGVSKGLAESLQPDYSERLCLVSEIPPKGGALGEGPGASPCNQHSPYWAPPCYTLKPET

B1: PD-L1(mut2)-Fc (Fc fusion)
chain 1: FTVTVPKDLYVVEYGSNMTIECKFPVEKQLDLAALQVYWMMEDKNIIQFVHGEEDLKVQHSSYRQRARLLKDQLSLGNAALQITDVKLQDAGVYTCLIAYKGADYKRITVKVNAPYNKINQRILVVDPVTSEHELTCQAEGYPKAEVIWTSSDHQVLSGKTTTTNSKREEKLFNVTSTLRINTTTNEIFYCTFRRLDPEENHTAELVIPELPLAHPPNERGGGGSGGGDKTHTCPPCPAPEDEGGPSVFLFPPKPKDTLMISRTPEVTCVVVDVSHEDPEVKFNWYVDGVEVHNAKTKPREEQYNSTYRVVSVLTVLHQDWLNGKEYKCKVSNKALPAPIEKTISKAKGQPREPQVYVYPPSREEMTKNQVSLTCLVKGFYPSDIAVEWESNGQPENNYKTTPPVLDEDGSFALVSKLTVDKSRWQQGNVFSCSVMHEALHNHYTQKSLSLSPGK
chain 2: B1 chain 1 with D242K, E243K, Y359L, T374L, N398R, K400M, T402W, E408S, A413F, V415Y
B2: IL-2(R38D/K43E/E61R)/PD-L1(mut2)-Fc (Fc fusion)
chain 1: B1 chain 1
chain 2: FTVTVPKDLYVVEYGSNMTIECKFPVEKQLDLAALQVYWMMEDKNIIQFVHGEEDLKVQHSSYRQRARLLKDQLSLGNAALQITDVKLQDAGVYTCLIAYKGADYKRITVKVNAPYNKINQRILVVDPVTSEHELTCQAEGYPKAEVIWTSSDHQVLSGKTTTTNSKREEKLFNVTSTLRINTTTNEIFYCTFRRLDPEENHTAELVIPELPLAHPPNERGGGSGAPTSSSTKKTQLQLEHLLLDLQMILNGINNYKNPKLTDMLTFEFYMPKKATELKHLQCLERELKPLEEVLNLAQSKNFHLRPRDLISNINVIVLELKGSETTFMCEYADETATIVEFLNRWITFCQSIISTLTGGGGSGGGDKTHTCPPCPAPEKKGGPSVFLFPPKPKDTLMISRTPEVTCVVVDVSHEDPEVKFNWYVDGVEVHNAKTKPREEQYNSTYRVVSVLTVLHQDWLNGKEYKCKVSNKALPAPIEKTISKAKGQPREPQVYVLPPSREEMTKNQVSLLCLVKGFYPSDIAVEWESNGQPENRYMTWPPVLDSDGSFFLYSKLTVDKSRWQQGNVFSCSVMHEALHNHYTQKSLSLSPGK
B3: IL-2(L18R/Q22E/R38D/K43E/E61R)/PD-L1(mut2)-Fc (Fc fusion)
chain 1: B1 chain 1
chain 2: B2 chain 2 with L243R, Q247E
B4: IL-2(R38D/K43E/E61R/Q126T)/PD-L1(mut2)-Fc (Fc fusion)
chain 1: B1 chain 1
chain 2: B2 chain 2 with Q351T
B5: IL-2(L18R/Q22E/R38D/K43E/E61R/Q126T)/PD-L1(mut2)-Fc (Fc fusion)
chain 1: B1 chain 1
chain 2: B2 chain 2 with L243R, Q247E, Q351T
B6: IL-2(L18R/Q22E/R38D/K43E/E61R/Q126T/S130R)/PD-L1(mut2)-Fc (Fc fusion)
chain 1: B1 chain 1
chain 2: B2 chain 2 with L243R, Q247E, Q351T, S355R
B7: IL-12(E59A/F60A)/PD-L1(mut2)-Fc (Fc fusion)
chain 1: FTVTVPKDLYVVEYGSNMTIECKFPVEKQLDLAALQVYWMMEDKNIIQFVHGEEDLKVQHSSYRQRARLLKDQLSLGNAALQITDVKLQDAGVYTCLIAYKGADYKRITVKVNAPYNKINQRILVVDPVTSEHELTCQAEGYPKAEVIWTSSDHQVLSGKTTTTNSKREEKLFNVTSTLRINTTTNEIFYCTFRRLDPEENHTAELVIPELPLAHPPNERGGGGSGGGIWELKKDVYVVELDWYPDAPGEMVVLTCDTPEEDGITWTLDQSSEVLGSGKTLTIQVKAAGDAGQYTCHKGGEVLSHSLLLLHKKEDGIWSTDILKDQKEPKNKTFLRCEAKNYSGRFTCWWLTTISTDLTFSVKSSRGSSDPQGVTCGAATLSAERVRGDNKEYEYSVECQEDSACPAAEESLPIEVMVDAVHKLKYENYTSSFFIRDIIKPDPPKNLQLKPLKNSRQVEVSWEYPDTWSTPHSYFSLTFCVQVQGKSKREKKDRVFTDKTSATVICRKNASISVRAQDRYYSSSWSEWASVPCSGGGGSGGGSGGGGSRNLPVATPDPGMFPCLHHSQNLLRAVSNMLQKARQTLEFYPCTSEEIDHEDITKDKTSTVEACLPLELTKNESCLNSRETSFITNGSCLASRKTSFMMALCLSSIYEDLKMYQVEFKTMNAKLLMDPKRQIFLDQNMLAVIDELMQALNFNSETVPQKSSLEEPDFYKTKIKLCILLHAFRIRAVTIDRVMSYLNASGGGGSGGGDKTHTCPPCPAPEDEGGPSVFLFPPKPKDTLMISRTPEVTCVVVDVSHEDPEVKFNWYVDGVEVHNAKTKPREEQYNSTYRVVSVLTVLHQDWLNGKEYKCKVSNKALPAPIEKTISKAKGQPREPQVYVYPPSREEMTKNQVSLTCLVKGFYPSDIAVEWESNGQPENNYKTTPPVLDEDGSFALVSKLTVDKSRWQQGNVFSCSVMHEALHNHYTQKSLSLSPGK
chain 2: B1 chain 1 with D242K, E243K, Y359L, T374L, N398R, K400M, T402W, E408S, A413F, V415Y
B8: IL-2(L18R/Q22E/R38D/K43E/E61R)/IL-12(E59A/F60A)/PD-L1(mut2)-Fc (Fc fusion)
chain 1: B7 chain 1
chain 2: B2 chain 2 with L243R, Q247E
B9: IL-2(R38D/K43E/E61R/Q126T)/IL-12(E59A/F60A)/PD-L1(mut2)-Fc (Fc fusion)
chain 1: B7 chain 1
chain 2: B2 chain 2 with Q351T

Experiments:
Assay in all cases: cell-based or functional assay
[1] = target: T1, human IL-2 receptor (IL-2Rα, IL-2Rβ, …)
[2] = target: T1, human IL-2 receptor (IL-2Rα, IL-2Rβ, …); remark: listed apart in the source
[3] = target: human IL-12 receptor complex (IL-12Rβ1, IL-12Rβ2) (human, UniProt P42701 24-662; Q99665 24-862)
Chain of human IL-12 receptor complex (IL-12Rβ1, IL-12Rβ2) (Q99665 24-862, chain 2 of 2, other chains not shown): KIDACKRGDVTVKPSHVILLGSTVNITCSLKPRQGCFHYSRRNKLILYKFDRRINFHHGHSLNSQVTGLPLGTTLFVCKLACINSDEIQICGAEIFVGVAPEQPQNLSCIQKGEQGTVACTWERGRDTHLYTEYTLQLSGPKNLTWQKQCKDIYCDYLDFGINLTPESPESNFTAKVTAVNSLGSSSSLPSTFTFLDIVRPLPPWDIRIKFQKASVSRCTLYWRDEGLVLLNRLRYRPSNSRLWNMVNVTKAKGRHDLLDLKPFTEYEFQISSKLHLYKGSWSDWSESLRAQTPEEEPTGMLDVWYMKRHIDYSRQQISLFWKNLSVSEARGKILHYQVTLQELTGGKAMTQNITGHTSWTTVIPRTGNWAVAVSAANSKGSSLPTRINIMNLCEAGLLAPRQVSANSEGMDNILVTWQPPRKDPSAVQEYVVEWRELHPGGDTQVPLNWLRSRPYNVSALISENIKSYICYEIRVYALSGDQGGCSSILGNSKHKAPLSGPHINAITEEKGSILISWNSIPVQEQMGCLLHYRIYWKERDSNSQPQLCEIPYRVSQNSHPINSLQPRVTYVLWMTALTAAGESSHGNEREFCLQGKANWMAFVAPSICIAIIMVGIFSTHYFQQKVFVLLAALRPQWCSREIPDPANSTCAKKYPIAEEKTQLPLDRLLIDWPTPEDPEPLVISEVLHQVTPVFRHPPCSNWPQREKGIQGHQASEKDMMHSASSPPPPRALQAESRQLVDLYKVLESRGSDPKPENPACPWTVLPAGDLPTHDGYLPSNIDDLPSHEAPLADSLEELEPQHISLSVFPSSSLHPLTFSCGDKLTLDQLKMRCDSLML

IL-2 biological activity, HEK-IL-2 [1] [%]	IL-2 biological activity, HEK-IL-2-PD-1 [1] [%]	IL-2 biological activity, HEK-IL-2 [2] [%]	IL-2 biological activity, HEK-IL-2-PD-1 [2] [%]	IL-12 biological activity, HEK-IL-12 [3] [%]	IL-12 biological activity, HEK-IL-12-PD-1 [3] [%]	Binder
< 0.1	< 0.1	–	–	–	–	B1
16	76	–	–	–	–	B2
4	35	–	–	–	–	B3
2	20	–	–	–	–	B4
< 0.1	5	–	–	–	–	B5
< 0.1	< 0.1	–	–	–	–	B6
–	–	< 0.1	< 0.1	< 0.2	24	B7
–	–	4	35	< 0.2	19	B8
–	–	2	20	< 0.2	25	B9
